The record followed here is ChEMBL document CHEMBL1221387, “Prenylflavonoids from Glycyrrhiza uralensis and their protein tyrosine phosphatase-1B inhibitory activities” (Bioorg Med Chem Lett, 2010).

Broadly, the Km is the concentration of substrate that gives half-maximal velocity.

Substrate in data set [1]: COc1c(CC=C(C)C)c(O)cc(O)c1-c1oc2cc(O)ccc2c1C
The settings on record: Homo sapiens; 30 uM.
Description: Competitive inhibition of human recombinant PTP1B at 30 uM by Lineweaver-Burke plot analysis

Substrate in data set [2]: COc1c(CC=C(C)C)c(O)cc(O)c1-c1oc2cc(O)ccc2c1C
The settings on record: Homo sapiens; 20 uM.
Description: Competitive inhibition of human recombinant PTP1B at 20 uM by Lineweaver-Burke plot analysis

Substrate in data set [3]: COc1c(CC=C(C)C)c(O)cc(O)c1-c1oc2cc(O)ccc2c1C
Description: Competitive inhibition of human recombinant PTP1B at 10 uM by Lineweaver-Burke plot analysis
The settings on record: Homo sapiens; 10 uM.

B1: Tyrosine-protein phosphatase non-receptor type 1 (Homo sapiens), P18031 (protein)
chain: MEMEKEFEQIDKSGSWAAIYQDIRHEASDFPCRVAKLPKNKNRNRYRDVSPFDHSRIKLHQEDNDYINASLIKMEEAQRSYILTQGPLPNTCGHFWEMVWEQKSRGVVMLNRVMEKGSLKCAQYWPQKEEKEMIFEDTNLKLTLISEDIKSYYTVRQLELENLTTQETREILHFHYTTWPDFGVPESPASFLNFLFKVRESGSLSPEHGPVVVHCSAGIGRSGTFCLADTCLLLMDKRKDPSSVDIKKVLLEMRKFRMGLIQTADQLRFSYLAVIEGAKFIMGDSSVQDQWKELSHEDLEPPPEHIPPPPRPPKRILEPHNGKCREFFPNHQWVKEETQEDKDCPIKEEKGSPLNAAPYGIESMSQDTEVRSRVVGGSLRGAQAASPAKGEPSLPEKDEDHALSYWKPFLVNMCVATVLTAGAYLCYRFLFNSNT
For B1, the Km turned out to be 5.5 µM in data set [1], 4.2 µM in data set [2] and 3.5 µM in data set [3].
